B1: RHOBTB3 (parent)
chain: GGADIIVIKYNVNDKFSFHEVKDN

Variants of: B1
Experiment: protein stability index of a GFP-peptide fusion (GPS, HEK-293T) (PSI 1-6); higher = more stable
Settings: c terminus: a fixed tail appended
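Note: lentivirally expressed fusions sorted by FACS into six bins by GFP to DsRed ratio, PSI derived from sequencing read proportions per bin multiplied by bin number.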

Compared with GGASIIVIKYNVNDKFSFHEVKDN, GGATIIVIKYNVNDKFSFHEVKDN is higher in protein stability index: 2.66 for the first, 3.79 for the second.

Compared with GGAVIIVIKYNVNDKFSFHEVKDN, GGAWIIVIKYNVNDKFSFHEVKDN is lower in protein stability index: 3.66 for the first, 2.41 for the second.

Compared with GGADAIVIKYNVNDKFSFHEVKDN, GGADCIVIKYNVNDKFSFHEVKDN is lower in protein stability index: 1.81 for the first, 1.74 for the second.

Going from GGADDIVIKYNVNDKFSFHEVKDN to GGADEIVIKYNVNDKFSFHEVKDN, the protein stability index falls from 4.15 to 3.59.

Compared with GGADFIVIKYNVNDKFSFHEVKDN, GGADGIVIKYNVNDKFSFHEVKDN is higher in protein stability index: 1.78 for the first, 2.82 for the second.

Compared with GGADHIVIKYNVNDKFSFHEVKDN, GGADKIVIKYNVNDKFSFHEVKDN is higher in protein stability index: 2.39 for the first, 2.67 for the second.

First: GGADLIVIKYNVNDKFSFHEVKDN
Second: GGADMIVIKYNVNDKFSFHEVKDN
The protein stability index of the first is higher: 3.18 for the first, 2.68 for the second.

Going from GGADNIVIKYNVNDKFSFHEVKDN to GGADPIVIKYNVNDKFSFHEVKDN, the protein stability index falls from 3.69 to 3.58.

Going from GGADQIVIKYNVNDKFSFHEVKDN to GGADRIVIKYNVNDKFSFHEVKDN, the protein stability index falls from 3.45 to 2.34.

First: GGADSIVIKYNVNDKFSFHEVKDN
Second: GGADTIVIKYNVNDKFSFHEVKDN
The protein stability index of the first is higher: 3.31 for the first, 2.47 for the second.

Going from GGADVIVIKYNVNDKFSFHEVKDN to GGADWIVIKYNVNDKFSFHEVKDN, the protein stability index rises from 1.43 to 2.59.

First: GGADYIVIKYNVNDKFSFHEVKDN
Second: GGADIAVIKYNVNDKFSFHEVKDN
The protein stability index of the first is lower: 1.78 for the first, 3.21 for the second.

Compared with GGADICVIKYNVNDKFSFHEVKDN, GGADIDVIKYNVNDKFSFHEVKDN is higher in protein stability index: 1.67 for the first, 4.07 for the second.

Compared with GGADIEVIKYNVNDKFSFHEVKDN, GGADIFVIKYNVNDKFSFHEVKDN is lower in protein stability index: 3.74 for the first, 1.5 for the second.

Compared with GGADIGVIKYNVNDKFSFHEVKDN, GGADIHVIKYNVNDKFSFHEVKDN is lower in protein stability index: 4.03 for the first, 2.92 for the second.

Going from GGADIKVIKYNVNDKFSFHEVKDN to GGADILVIKYNVNDKFSFHEVKDN, the protein stability index rises from 3 to 3.33.

First: GGADIMVIKYNVNDKFSFHEVKDN
Second: GGADINVIKYNVNDKFSFHEVKDN
The protein stability index of the first is lower: 1.92 for the first, 3.83 for the second.

First: GGADIPVIKYNVNDKFSFHEVKDN
Second: GGADIQVIKYNVNDKFSFHEVKDN
The protein stability index of the first is higher: 4.12 for the first, 3.98 for the second.

Going from GGADIRVIKYNVNDKFSFHEVKDN to GGADISVIKYNVNDKFSFHEVKDN, the protein stability index rises from 3.1 to 3.63.

Compared with GGADITVIKYNVNDKFSFHEVKDN, GGADIVVIKYNVNDKFSFHEVKDN is lower in protein stability index: 2.45 for the first, 1.77 for the second.

First: GGADIWVIKYNVNDKFSFHEVKDN
Second: GGADIYVIKYNVNDKFSFHEVKDN
The protein stability index of the first is lower: 1.79 for the first, 2.23 for the second.

First: GGADIIAIKYNVNDKFSFHEVKDN
Second: GGADIICIKYNVNDKFSFHEVKDN
The protein stability index of the first is higher: 2.17 for the first, 1.79 for the second.

First: GGADIIDIKYNVNDKFSFHEVKDN
Second: GGADIIEIKYNVNDKFSFHEVKDN
The protein stability index of the first is higher: 4.15 for the first, 3.28 for the second.

Going from GGADIIFIKYNVNDKFSFHEVKDN to GGADIIGIKYNVNDKFSFHEVKDN, the protein stability index falls from 3.21 to 2.5.

Compared with GGADIIHIKYNVNDKFSFHEVKDN, GGADIIIIKYNVNDKFSFHEVKDN is higher in protein stability index: 2.28 for the first, 2.46 for the second.

Compared with GGADIIKIKYNVNDKFSFHEVKDN, GGADIILIKYNVNDKFSFHEVKDN is lower in protein stability index: 2.33 for the first, 2.3 for the second.

First: GGADIIMIKYNVNDKFSFHEVKDN
Second: GGADIINIKYNVNDKFSFHEVKDN
The protein stability index of the first is lower: 2.06 for the first, 2.85 for the second.

Going from GGADIIPIKYNVNDKFSFHEVKDN to GGADIIQIKYNVNDKFSFHEVKDN, the protein stability index falls from 4.13 to 2.31.

Going from GGADIIRIKYNVNDKFSFHEVKDN to GGADIISIKYNVNDKFSFHEVKDN, the protein stability index rises from 1.67 to 2.17.

Going from GGADIITIKYNVNDKFSFHEVKDN to GGADIIWIKYNVNDKFSFHEVKDN, the protein stability index falls from 1.6 to 1.52.

Going from GGADIIYIKYNVNDKFSFHEVKDN to GGADIIVAKYNVNDKFSFHEVKDN, the protein stability index falls from 2.29 to 1.78.

Going from GGADIIVCKYNVNDKFSFHEVKDN to GGADIIVDKYNVNDKFSFHEVKDN, the protein stability index rises from 2.22 to 3.81.

Compared with GGADIIVEKYNVNDKFSFHEVKDN, GGADIIVFKYNVNDKFSFHEVKDN is lower in protein stability index: 4.25 for the first, 1.44 for the second.

Compared with GGADIIVGKYNVNDKFSFHEVKDN, GGADIIVHKYNVNDKFSFHEVKDN is higher in protein stability index: 2.92 for the first, 3.35 for the second.

Compared with GGADIIVKKYNVNDKFSFHEVKDN, GGADIIVLKYNVNDKFSFHEVKDN is lower in protein stability index: 3.96 for the first, 1.47 for the second.

First: GGADIIVMKYNVNDKFSFHEVKDN
Second: GGADIIVNKYNVNDKFSFHEVKDN
The protein stability index of the first is lower: 1.89 for the first, 4.41 for the second.

Compared with GGADIIVPKYNVNDKFSFHEVKDN, GGADIIVQKYNVNDKFSFHEVKDN is higher in protein stability index: 1.32 for the first, 3.48 for the second.

Compared with GGADIIVRKYNVNDKFSFHEVKDN, GGADIIVSKYNVNDKFSFHEVKDN is higher in protein stability index: 3.17 for the first, 3.71 for the second.

First: GGADIIVTKYNVNDKFSFHEVKDN
Second: GGADIIVVKYNVNDKFSFHEVKDN
The protein stability index of the first is higher: 2.95 for the first, 1.81 for the second.

Going from GGADIIVWKYNVNDKFSFHEVKDN to GGADIIVYKYNVNDKFSFHEVKDN, the protein stability index falls from 2.04 to 1.59.

Compared with GGADIIVIAYNVNDKFSFHEVKDN, GGADIIVICYNVNDKFSFHEVKDN is higher in protein stability index: 1.67 for the first, 2.65 for the second.

First: GGADIIVIDYNVNDKFSFHEVKDN
Second: GGADIIVIFYNVNDKFSFHEVKDN
The protein stability index of the first is lower: 1.66 for the first, 3.82 for the second.

First: GGADIIVIGYNVNDKFSFHEVKDN
Second: GGADIIVIHYNVNDKFSFHEVKDN
The protein stability index of the first is higher: 3.78 for the first, 3.31 for the second.

Going from GGADIIVIIYNVNDKFSFHEVKDN to GGADIIVILYNVNDKFSFHEVKDN, the protein stability index falls from 4.01 to 2.84.

First: GGADIIVIMYNVNDKFSFHEVKDN
Second: GGADIIVIPYNVNDKFSFHEVKDN
The protein stability index of the first is higher: 3.15 for the first, 2.07 for the second.

First: GGADIIVIRYNVNDKFSFHEVKDN
Second: GGADIIVITYNVNDKFSFHEVKDN
The protein stability index of the first is lower: 2.33 for the first, 2.97 for the second.

First: GGADIIVIWYNVNDKFSFHEVKDN
Second: GGADIIVIYYNVNDKFSFHEVKDN
The protein stability index of the first is higher: 3.44 for the first, 2.89 for the second.

From the supplement of paper PMC10567573
